Measurements from patent US20220372098A1 (Johns Hopkins, published 2022).
Numbering of substitutions follows the chain as printed. In names and notes the source's numbering stands.

Legend:
[1] = target: T1, biotinylated human IL-2 with C-terminal biotin acceptor peptide (human, UniProt P60568 21-153, biotinylated with BirA ligase on the C-terminal biotin acceptor peptide); assay: bio-layer interferometry (Octet), equilibrium titration on immobilized hIL-2
T1 construct: Immobilized on streptavidin tips in BLI and used as the soluble labelled ligand in the yeast display assays; also called biotinylated hIL-2; immobilized hIL-2

[2] = target: T1, biotinylated human IL-2 with C-terminal …; assay: flow cytometry on yeast displaying the scFv, 5 nM soluble biotinylated IL-2 co-incubated with soluble IL-2Rα
Procedure: (§1) Cells were then washed and stained with a 1:200 dilution of AlexaFluor 647-complexed streptavidin (Thermo Fisher Scientific) in PBSA for 15 minutes at 4° C. After a final wash, cells were analyzed for target binding using a CytoFLEX flow cytometer (Beckman Coulter). Background-subtracted and normalized binding curves were fitted to a first-order binding model and equilibrium dissociation constant (KD) values were determined using GraphPad Prism software.

[3] = target: T1, biotinylated human IL-2 with C-terminal …; assay: flow cytometry, titration of soluble biotinylated IL-2 on yeast displaying the scFv, streptavidin-AF647 detection
Procedure: as §1

[4] = target: T1, biotinylated human IL-2 with C-terminal …; assay: flow cytometry competition: soluble IL-2Rα titrated against 10 nM biotinylated IL-2; competitor is the yeast-displayed 602 scFv
[5] = target: T1, biotinylated human IL-2 with C-terminal …; assay: flow cytometry competition: soluble IL-2Rα titrated against 5 nM biotinylated IL-2; competitor is the yeast-displayed F10 scFv

B1: recombinant 602 antibody (anti-human IL-2), mouse IgG2a kappa (antibody, V domains shown)
VH: EVQLQESGPGLVAPSQSLSITCTVSGFSLTNYDISWIRQPPGKGLEWLGVIWTGGGTNYNSGFMSRLSITKDNSKSQVFLKMNSLQTDDTAIYYCVRQGRTPYWGQGTLVTVSA
VL: DIQVTQSPSSLSVSLGDRVTITCKASKDIYNRLAWYQQKPGNAPRLLISGATSLETGVPSRFSGSGSGKDYTLTITSLQTEDVATYYCQQFWGTPYTFGGGTKLEIKR
notes: They are built here from the component entries so that the signal peptides are left out; also called MAB602
In the case of B1, the Kd [1] is reported as 0.0035 µM.

B2: yeast-displayed F10 single-chain variable fragment (variant of the 602 scFv) (scFv)
scFv: EVQLQESGPGLVAPSQSLSITCTVSGFSLTNYDISWIRQPPGKGLEWLGVIWTGGGTNYNSGFMSRLSITKDNSKSQVFLKMNSLQTDDTAIYYCVRQGRSPYWGQGTLVTVSAGGGGSGGGGSGGGGSDIQVTQSPSSLSVSLGDRVTITCKASKDIYNRLAWYQQKPGNAPRLLISGATSLETGVPSRFSGSGSGKDYTLTITSLQTEDVATYYCQQSWDTPYTFGGGTKLEIK
notes: also called F10 scFv; evolved F10 scFv; not shown: N-terminal Aga2, (G4S)3 linker, 3C and factor Xa cleavage sites; C-terminal c-Myc tag
B2: binds [2].

B3: yeast-displayed 602 single-chain variable fragment (VH-(G4S)3-VL, fused to Aga2) (scFv)
scFv: B2 scFv with S101T, S220F, D222G
notes: not shown: N-terminal Aga2, (G4S)3 linker, 3C and factor Xa cleavage sites; C-terminal c-Myc tag
For B3, the “EC50 (read off the curve)” value [3] was about 0.01 µM.

B4: human IL-2Rα extracellular domain, soluble, with C-terminal hexahistidine tag (receptor)
chain: ELCDDDPPEIPHATFKAMAYKEGTMLNCECKRGFRRIKSGSLYMLCTGNSSHSSWDNQCQCTSSATRNTTKQVTPQPEEQKERKTTEMQSPMQPVDQASLPGHCREPPPWENEATERIYHFVVGQMVYYQCVQGYRALHRGPAESVCKMTHGKTRWTQPQLICTGEMETSQFPGEEKPQASPEGRPESETSCLVTTTDFQIQTEMAATMETSIFTTEYQHHHHHH
notes: extracellular domain; also called soluble IL-2Rα
In the case of B4, the “IC50 (read off the curve)” value [4] is reported as about 0.06 µM and the “IC50 (read off the curve)” value [5] is reported as about 0.3 µM.
